Reference: US20240002500A1 (GUANGDONG FAPON BIOPHARMA, published 2024)

Experiments:
[1] = molecular target: T1, human Tigit extracellular domain recombinant protein hTigit-his (Acrobiosystem, Cat.TIT-H2H3) (human, UniProt Q495A1 22-141); test: BLI epitope binning (ForteBIO QKe), hTigit-his on anti-Penta-HIS sensor; competitor R0300
T1 construct: extracellular domain; Bought; not shown: his tag
T1 sequence (looked up): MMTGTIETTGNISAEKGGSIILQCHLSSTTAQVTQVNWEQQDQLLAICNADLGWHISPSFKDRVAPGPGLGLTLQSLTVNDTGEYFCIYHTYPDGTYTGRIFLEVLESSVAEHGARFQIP
Description: (§1) Epitope competition analysis was performed on an anti-human TIGIT antibody with an MD ForteBIO QKe platform. An experimental method included: a human Tigit extracellular domain recombinant protein hTigit-his (Acrobiosystem, Cat.TIT-H2H3, lot-1336-76GF1-F9) carrying a his tag was diluted with an equilibration buffer (1×PBS+0.02% Tween 20), until the final concentration was 1.5 μg/ml. The anti-human Tigit antibody was diluted with the equilibration buffer (1×PBS+0.02% Tween 20), the final concentration being 5 μg/ml. After an anti-Penta-HIS biosensor (ForteBIO, Cat. 18-5122) was fully hydrated, first the hTigit-his recombinant protein was solidified for 180 seconds, then equilibrated for 30 seconds, and bound to the first anti-human Tigit antibody for 180 seconds, then equilibrated for 30 seconds, and then bound to the second anti-human Tigit antibody, binding time being 300 seconds. The whole reaction was performed at 25° C. and 1000 rpm; and finally, Octet analysis software was used to perform epitope binning analysis.

[2] = molecular target: T1, human Tigit extracellular domain …; test: BLI epitope binning (ForteBIO QKe), hTigit-his on anti-Penta-HIS sensor; competitor R0223
Description: as §1

epitope binning signal (name and unit not given) [1]: 0.544 | epitope binning signal (name and unit not given) [2]: 0.0383
B1: Tigit-18 (antibody, V domains shown)
VH: QVQLQQPGAELVRPGASVKLSCKASGYSFTSYWMNWVKQRPGQGHEWIGMIHLSNSETRLNQNFLDKATLTVDKSSSTVYLQLSSPTSEDSAVYYCARERDYYGSSYFDYWGQGTTLTVSS
VL: DIVMTQSPASLVVSLGQRATISCRTSQSVSTSSYSYMHWYQQKPGQPPKLLIKNASNLESGVPARFSASGSGTDFTLNIHPVEEEDAATYYCQHSWEIPRTFGGGTKLEIK
